Reference: patent US7074904
Read-outs that look alike come from different tables or passages of the source. One block for each molecule: values may come before it.

Experiments:
[1] = molecular target: membrane-bound single-chain I-A^d-OVA (SCT1 construct) on transfected NSO cells (mouse (I-A^d); chicken (OVA peptide)); experiment: flow cytometry, FITC-conjugated 10-3.6 isotype control 1:100 on T6 (SCT1-transfectant)
[2] = molecular target: I-A^d on NSO parental cells (untransfected negative control, H-2^d background) (mouse) (UniProt P04228); experiment: flow cytometry, FITC-conjugated 10-3.6 isotype control 1:100 on NSO (parental) cells
[3] = molecular target: membrane-bound single-chain I-A^d-OVA (SCT1 construct) on transfected NSO cells (mouse (I-A^d); chicken (OVA peptide)); experiment: flow cytometry, FITC-conjugated 10-3.6 isotype control 1:100 on T12 (SCT1-transfectant)
[4] = molecular target: membrane-bound single-chain I-A^d-OVA (SCT1 construct) on transfected NSO cells (mouse (I-A^d); chicken (OVA peptide)); experiment: flow cytometry, FITC-conjugated 10-3.6 isotype control 1:100 on T2 (SCT1-transfectant)
[5] = molecular target: soluble single-chain I-A^d-OVA with EE antibody tag (SCE1 construct) secreted by transfected NSO cells (mouse (I-A^d); chicken (OVA peptide)); experiment: sandwich ELISA of Example 18, M5/114 capture and biotinylated AMS-32.1 detection; undiluted culture supernatant of E11 (SCE1 transfectant)
[6] = molecular target: soluble single-chain I-A^d-OVA from insect cells (SSC1 gene in pMBSC1.2, SF9 cells) (mouse (I-A^d); chicken (OVA peptide)); experiment: sandwich ELISA, M5/114 capture and biotinylated AMS-32.1 detection; supernatant of virus clone F8
[7] = molecular target: soluble single-chain I-A^d-OVA from insect cells (SSC1 gene in pMBSC1.2, SF9 cells) (mouse (I-A^d); chicken (OVA peptide)); experiment: sandwich ELISA of Example 18, M5/114 capture and biotinylated AMS-32.1 detection; sc I-A^d-OVA from insect cell culture (positive control)
[8] = molecular target: Neuron Specific Enolase (NSE), supernatant of SF9 cells infected with recombinant Baculovirus; experiment: sandwich ELISA, M5/114 capture and biotinylated AMS-32.1 detection; supernatant of SF9 cells infected with NSE Baculovirus (negative control)
[9] = molecular target: soluble single-chain I-A^d-OVA with EE antibody tag (SCE1 construct) secreted by transfected NSO cells (mouse (I-A^d); chicken (OVA peptide)); experiment: sandwich ELISA of Example 18, M5/114 capture and biotinylated AMS-32.1 detection; undiluted culture supernatant of E10 (SCE1 transfectant)
[10] = molecular target: soluble single-chain I-A^d-OVA from insect cells (SSC1 gene in pMBSC1.2, SF9 cells) (mouse (I-A^d); chicken (OVA peptide)); experiment: sandwich ELISA, M5/114 capture and biotinylated AMS-32.1 detection; cotransfection mix supernatant, diluted 1:8
[11] = molecular target: soluble single-chain I-A^d-OVA from insect cells (SSC1 gene in pMBSC1.2, SF9 cells) (mouse (I-A^d); chicken (OVA peptide)); experiment: sandwich ELISA, M5/114 capture and biotinylated AMS-32.1 detection; cotransfection mix supernatant, diluted 1:2
[12] = molecular target: soluble single-chain I-A^d-OVA from insect cells (SSC1 gene in pMBSC1.2, SF9 cells) (mouse (I-A^d); chicken (OVA peptide)); experiment: sandwich ELISA, M5/114 capture and biotinylated AMS-32.1 detection; cotransfection mix supernatant, undiluted
[13] = molecular target: soluble single-chain I-A^d-OVA from insect cells (SSC1 gene in pMBSC1.2, SF9 cells) (mouse (I-A^d); chicken (OVA peptide)); experiment: sandwich ELISA, M5/114 capture and biotinylated AMS-32.1 detection; cotransfection mix supernatant, diluted 1:4
[14] = molecular target: soluble single-chain I-A^d-OVA from insect cells (SSC1 gene in pMBSC1.2, SF9 cells) (mouse (I-A^d); chicken (OVA peptide)); experiment: sandwich ELISA, M5/114 capture and biotinylated AMS-32.1 detection; supernatant of virus clone C6
[15] = molecular target: membrane-bound single-chain I-A^d-OVA (SCT1 construct) on transfected NSO cells (mouse (I-A^d); chicken (OVA peptide)); experiment: flow cytometry, FITC-conjugated AMS 32.1 1:100 on T2 (SCT1-transfectant)
[16] = molecular target: membrane-bound single-chain I-A^d-OVA (SCT1 construct) on transfected NSO cells (mouse (I-A^d); chicken (OVA peptide)); experiment: flow cytometry, FITC-conjugated AMS 32.1 1:100 on T6 (SCT1-transfectant)
[17] = molecular target: membrane-bound single-chain I-A^d-OVA (SCT1 construct) on transfected NSO cells (mouse (I-A^d); chicken (OVA peptide)); experiment: flow cytometry, FITC-conjugated AMS 32.1 1:100 on T12 (SCT1-transfectant)
[18] = molecular target: I-A^d on NSO parental cells (untransfected negative control, H-2^d background) (mouse) (UniProt P04228); experiment: flow cytometry, FITC-conjugated AMS 32.1 1:100 on NSO (parental) cells
[19] = molecular target: T cell receptor of the murine T cell hybridoma DO11.10 (I-A^d restricted, OVA peptide 323-339 specific) (mouse); experiment: cell-based or functional assay
[20] = molecular target: T cell receptor of the murine T cell hybridoma DO11.10 (I-A^d restricted, OVA peptide 323-339 specific) (mouse); experiment: cell-based or functional assay; remark: listed apart in the source

Molecule: AMS-32.1 anti-IA^d (Pharmingen) (antibody)
Mean Fluorescence [15]: 613 | Mean Fluorescence [16]: 418 | Mean Fluorescence [17]: 911 | Mean Fluorescence [18]: 280

B2: I-A^d on NSO parental cells (untransfected negative control, H-2^d background) (protein, mouse)
MHC II alpha: EDDIEADHVGFYGTTVYQSPGDIGQYTHEFDGDELFYVDLDKKKTVWRLPEFGQLILFEPQGGLQNIAAEKHNLGILTKRSNFTPATNEAPQATVFPKSPVLLGQPNTLICFVDNIFPPVINITWLRNSKSVTDGVYETSFLVNRDHSFHKLSYLTFIPSDDDIYDCKVEHWGLEEPVLKHWEPEIPAPMSELTETVVCALGLSVGLVGIVVGTIFIIQGLRSGGTSRHPGPL
MHC II beta: GNSERHFVVQFKGECYYTNGTQRIRLVTRYIYNREEYVRYDSDVGEYRAVTELGRPDAEYWNSQPEILERTRAEVDTACRHNYEGPETSTSLRRLEQPNVAISLSRTEALNHHNTLVCSVTDFYPAKIKVRWFRNGQEETVGVSSTQLIRNGDWTFQVLVMLEMTPHQGEVYTCHVEHPSLKSPITVEWRAQSESARSKMLSGIGGCVLGVIFLGLGLFIRHRSQKGPRGPPPAGLLQ
IL-2 ELISA result (Absorbance), DO11.10 with NSO (parental cell line) as antigen presenting cell [19]: 0.078 Absorbance | IL-2 ELISA result (Absorbance), DO11.10 with NSO (parental cell line) as antigen presenting cell [20]: 0.047 Absorbance

B3: I-A^d on A20 cells with added OVA 323-339 peptide (peptide-MHC, mouse)
MHC II alpha: B2 MHC II alpha
MHC II beta: B2 MHC II beta
peptide: SISQAVHAAHAEINEAGR
IL-2 ELISA result (Absorbance), DO11.10 with A20 + OVA 323-339 peptide (positive control) [19]: 1.45 Absorbance | IL-2 ELISA result (Absorbance), DO11.10 with A20 + OVA 323-339 peptide (positive control) [20]: 1.33 Absorbance

Second part, the molecule after the results:

Mean Fluorescence [1]: 45.1 | Mean Fluorescence [2]: 32.1 | Mean Fluorescence [3]: 45.9 | Mean Fluorescence [4]: 22
Molecule: isotype matched FITC-conjugated anti-I-A^k antibody, 10-3.6 (PharMingen)

Absorbance (405 nm) [5]: 0.96 absorbance | Absorbance (405 nm) [6]: 1.45 absorbance | Absorbance (405 nm) [7]: 2.44 absorbance | Absorbance (405 nm) [8]: 0.098 absorbance | Absorbance (405 nm) [9]: 0.781 absorbance | Absorbance (405 nm) [10]: 0.165 absorbance | Absorbance (405 nm) [11]: 0.524 absorbance | Absorbance (405 nm) [12]: 0.857 absorbance | Absorbance (405 nm) [13]: 0.305 absorbance | Absorbance (405 nm) [14]: 1.56 absorbance
Molecule: M5/114 (ATCC TIB 120) anti-IA^d (antibody)

IL-2 ELISA result (Absorbance), DO11.10 with T12 (SCT1 transfectant) as antigen presenting cell [19]: 1.03 Absorbance | IL-2 ELISA result (Absorbance), DO11.10 with T2 (SCT1 transfectant) as antigen presenting cell [20]: 0.758 Absorbance | IL-2 ELISA result (Absorbance), DO11.10 with T6 (SCT1 transfectant) as antigen presenting cell [20]: 0.307 Absorbance
B1: membrane-bound single-chain I-A^d-OVA (SCT1 construct) on transfected NSO cells (peptide-MHC)
chain: TMALQIPSLLLSAAVVVLMVLSSPRTLSISQAVHAAHAEINEAGRASGGGGSGGGGNSERHFVVQFKGECYYTNGTQRIRLVTRYIYNREEYVRYDSDVGEYRAVTELGRPDAEYWNSQPEILERTRAEVDTACRHNYEGPETSTSLRRLEQPNVAISLSRTEALNHHNTLVCSVTDFYPAKIKVRWFRNGQEETVGVSSTQLIRNGDWTFQVLVMLEMTPHQGEVYTCHVEHPSLKSPITVEWTSGGGGSGGGGSGGGGSGGGGSSSEDDIEADHVGFYGTTVYQSPGDIGQYTHEFDGDELFYVDLDKKKTVWRLPEFGQLILFEPQGGLQNIAAEKHNLGILTKRSNFTPATNEAPQATVFPKSPVLLGQPNTLICFVDNIFPPVINITWLRNSKSVTDGVYETSFLVNRDHSFHKLSYLTFIPSDDDIYDCKVEHWGLEEPVLKHWEPEIPAPMSELTETVVCALGLSVGLVGIVVGTIFIIQGLRSGGTSRHPGPL

IL-2 concentration in DO11 super, 39 ng/well immobilized scIA^d-OVA (extended dilution) [20]: 0 U/ml | IL-2 concentration in DO11 super, 78 ng/well immobilized sc IA^d-OVA [20]: 45 U/ml | IL-2 concentration in DO11 super, 78 ng/well immobilized scIA^d-OVA (extended dilution) [20]: 17 U/ml | IL-2 concentration in DO11 super, 156 ng/well immobilized sc IA^d-OVA [20]: 100 U/ml | IL-2 concentration in DO11 super, 156 ng/well immobilized scIA^d-OVA (extended dilution) [20]: 24 U/ml | IL-2 concentration in DO11 super, 312 ng/well immobilized sc IA^d-OVA [20]: 109 U/ml | IL-2 concentration in DO11 super, 312 ng/well immobilized scIA^d-OVA (extended dilution) [20]: 35 U/ml | IL-2 concentration in DO11 super, 625 ng/well immobilized sc IA^d-OVA [20]: 116 U/ml | IL-2 concentration in DO11 super, 625 ng/well immobilized scIA^d-OVA (extended dilution) [20]: 38 U/ml | IL-2 concentration in DO11 super, 1250 ng/well immobilized sc IA^d-OVA [20]: 126 U/ml | IL-2 concentration in DO11 super, 2500 ng/well immobilized sc IA^d-OVA [20]: 143 U/ml | IL-4 concentration in DO11 super, 78 ng/well immobilized sc IA^d-OVA [20]: 7 U/ml | IL-4 concentration in DO11 super, 156 ng/well immobilized sc IA^d-OVA [20]: 10 U/ml | IL-4 concentration in DO11 super, 312 ng/well immobilized sc IA^d-OVA [20]: 16 U/ml | IL-4 concentration in DO11 super, 625 ng/well immobilized sc IA^d-OVA [20]: 15 U/ml | IL-4 concentration in DO11 super, 1250 ng/well immobilized sc IA^d-OVA [20]: 20 U/ml | IL-4 concentration in DO11 super, 2500 ng/well immobilized sc IA^d-OVA [20]: 23 U/ml | IL-r [IL-4] concentration in DO11 super, 39 ng/well immobilized scIA^d-OVA (extended dilution) [20]: 0 U/ml | IL-r [IL-4] concentration in DO11 super, 78 ng/well immobilized scIA^d-OVA (extended dilution) [20]: 0.8 U/ml | IL-r [IL-4] concentration in DO11 super, 156 ng/well immobilized scIA^d-OVA (extended dilution) [20]: 0.9 U/ml | IL-r [IL-4] concentration in DO11 super, 312 ng/well immobilized scIA^d-OVA (extended dilution) [20]: 1.5 U/ml | IL-r [IL-4] concentration in DO11 super, 625 ng/well immobilized scIA^d-OVA (extended dilution) [20]: 2 U/ml
B4: soluble single-chain I-A^d-OVA from insect cells (SSC1 gene in pMBSC1.2, SF9 cells) (peptide-MHC)
chain: TMALQIPSLLLSAAVVVLMVLSSPRTLSISQAVHAAHAEINEAGRASGGGGSGGGGNSERHFVVQFKGECYYTNGTQRIRLVTRYIYNREEYVRYDSDVGEYRAVTELGRPDAEYWNSQPEILERTRAEVDTACRHNYEGPETSTSLRRLEQPNVAISLSRTEALNHHNTLVCSVTDFYPAKIKVRWFRNGQEETVGVSSTQLIRNGDWTFQVLVMLEMTPHQGEVYTCHVEHPSLKSPITVEWTSGGGGSGGGGSGGGGSGGGGSSSEDDIEADHVGFYGTTVYQSPGDIGQYTHEFDGDELFYVDLDKKKTVWRLPEFGQLILFEPQGGLQNIAAEKHNLGILTKRSNFTPATNEAPQATVFPKSPVLLGQPNTLICFVDNIFPPVINITWLRNSKSVTDGVYETSFLVNRDHSFHKLSYLTFIPSDDDIYDCKVEHWGLEEPVLKHWSRASHHHHHH
